# Results as given in publication PMC12006399, “RNase1-driven ALK-activation is an oncogenic driver and therapeutic target in non-small cell lung cancer” (Signal Transduction and Targeted Therapy, 2025).
# What was measured:
# [1] = molecular target: ALK (Homo sapiens) (UniProt Q9UM73); conditions: cited from earlier work
# [2] = molecular target: EphA4 (Homo sapiens) (UniProt P54764); conditions: cited from earlier work
# [3] = molecular target: T1, endogenous wild-type ALK in H1299 human lung cancer cells (human (endogenous in H1299), UniProt Q9UM73 19-1620); experiment: ELISA; ALK captured from H1299 lysate on plate-bound ALK antibody (3 µg/ml); recombinant RNase1 at different concentrations in lysis buffer, overnight at 4 °C; streptavidin-HRP, TMB, OD 450 nm; Kd by GraphPad Prism; conditions: one partner purified
# T1 construct: ALK receptor tyrosine kinase, wild type, endogenous in H1299 human lung cancer cells; also called WT ALK; source: endogenous, H1299 lysate; endogenous, in H1299 cells
# T1 sequence (Q9UM73 19-1620): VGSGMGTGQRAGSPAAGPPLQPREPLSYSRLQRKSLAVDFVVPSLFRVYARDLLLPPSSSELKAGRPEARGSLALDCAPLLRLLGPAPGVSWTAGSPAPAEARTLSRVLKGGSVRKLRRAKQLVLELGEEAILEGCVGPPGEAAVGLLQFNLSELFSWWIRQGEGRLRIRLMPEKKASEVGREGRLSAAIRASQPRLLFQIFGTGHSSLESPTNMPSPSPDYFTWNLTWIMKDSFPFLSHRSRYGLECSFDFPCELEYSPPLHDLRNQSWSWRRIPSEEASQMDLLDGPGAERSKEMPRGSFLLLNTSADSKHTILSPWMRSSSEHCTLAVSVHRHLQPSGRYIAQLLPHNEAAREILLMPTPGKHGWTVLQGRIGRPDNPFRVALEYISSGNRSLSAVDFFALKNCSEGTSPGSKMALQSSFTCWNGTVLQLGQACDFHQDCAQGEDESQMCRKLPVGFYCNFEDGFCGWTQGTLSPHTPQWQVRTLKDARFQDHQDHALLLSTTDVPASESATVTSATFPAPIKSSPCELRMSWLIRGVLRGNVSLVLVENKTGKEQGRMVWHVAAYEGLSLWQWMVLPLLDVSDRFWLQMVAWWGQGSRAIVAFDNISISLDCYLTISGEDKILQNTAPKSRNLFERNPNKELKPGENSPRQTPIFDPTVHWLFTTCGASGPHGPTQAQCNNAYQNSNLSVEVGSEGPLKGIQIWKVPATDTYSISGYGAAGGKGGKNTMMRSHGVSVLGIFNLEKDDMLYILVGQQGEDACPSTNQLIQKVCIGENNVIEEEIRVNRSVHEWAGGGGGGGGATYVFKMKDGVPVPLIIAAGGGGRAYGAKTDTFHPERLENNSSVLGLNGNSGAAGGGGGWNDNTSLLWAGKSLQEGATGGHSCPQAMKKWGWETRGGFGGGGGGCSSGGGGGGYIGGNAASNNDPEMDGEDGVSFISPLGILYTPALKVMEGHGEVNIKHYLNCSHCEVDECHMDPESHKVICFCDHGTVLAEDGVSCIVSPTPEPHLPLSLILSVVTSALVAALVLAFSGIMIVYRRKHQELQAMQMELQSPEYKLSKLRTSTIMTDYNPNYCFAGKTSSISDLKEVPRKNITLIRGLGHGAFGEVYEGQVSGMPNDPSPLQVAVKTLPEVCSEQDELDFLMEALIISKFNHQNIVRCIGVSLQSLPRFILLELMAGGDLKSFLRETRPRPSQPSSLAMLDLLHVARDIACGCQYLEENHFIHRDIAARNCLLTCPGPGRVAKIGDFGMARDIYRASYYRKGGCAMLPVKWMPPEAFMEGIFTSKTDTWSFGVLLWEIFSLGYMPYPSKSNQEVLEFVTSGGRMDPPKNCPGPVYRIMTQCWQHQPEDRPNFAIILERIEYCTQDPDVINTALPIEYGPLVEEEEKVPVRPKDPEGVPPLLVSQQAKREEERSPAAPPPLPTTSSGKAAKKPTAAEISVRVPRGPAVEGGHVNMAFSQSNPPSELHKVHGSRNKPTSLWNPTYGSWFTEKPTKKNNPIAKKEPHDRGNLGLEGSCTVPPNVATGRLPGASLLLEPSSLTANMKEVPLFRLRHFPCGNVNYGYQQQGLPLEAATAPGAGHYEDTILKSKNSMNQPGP
# ALKAL2, sequence (Q6UX46 25-152): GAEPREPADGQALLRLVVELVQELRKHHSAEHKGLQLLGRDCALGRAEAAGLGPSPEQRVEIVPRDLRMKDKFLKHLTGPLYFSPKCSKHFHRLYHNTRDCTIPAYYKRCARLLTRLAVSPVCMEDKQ
# EphA4 (Homo sapiens), sequence (P54764 20-547): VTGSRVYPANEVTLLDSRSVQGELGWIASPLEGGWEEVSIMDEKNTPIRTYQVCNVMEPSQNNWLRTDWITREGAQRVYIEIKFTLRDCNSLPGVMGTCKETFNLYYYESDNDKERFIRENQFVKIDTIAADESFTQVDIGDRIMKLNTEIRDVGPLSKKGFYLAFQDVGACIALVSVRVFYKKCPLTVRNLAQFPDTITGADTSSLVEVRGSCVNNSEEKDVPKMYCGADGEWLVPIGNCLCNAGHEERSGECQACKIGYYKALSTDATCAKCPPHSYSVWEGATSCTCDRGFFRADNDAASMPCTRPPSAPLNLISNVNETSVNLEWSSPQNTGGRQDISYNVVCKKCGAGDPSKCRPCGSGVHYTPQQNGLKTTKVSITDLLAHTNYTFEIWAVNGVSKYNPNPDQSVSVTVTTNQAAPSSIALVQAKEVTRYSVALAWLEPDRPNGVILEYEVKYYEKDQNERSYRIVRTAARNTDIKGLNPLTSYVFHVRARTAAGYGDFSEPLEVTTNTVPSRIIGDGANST
# ALK (Homo sapiens), sequence (Q9UM73 19-1038): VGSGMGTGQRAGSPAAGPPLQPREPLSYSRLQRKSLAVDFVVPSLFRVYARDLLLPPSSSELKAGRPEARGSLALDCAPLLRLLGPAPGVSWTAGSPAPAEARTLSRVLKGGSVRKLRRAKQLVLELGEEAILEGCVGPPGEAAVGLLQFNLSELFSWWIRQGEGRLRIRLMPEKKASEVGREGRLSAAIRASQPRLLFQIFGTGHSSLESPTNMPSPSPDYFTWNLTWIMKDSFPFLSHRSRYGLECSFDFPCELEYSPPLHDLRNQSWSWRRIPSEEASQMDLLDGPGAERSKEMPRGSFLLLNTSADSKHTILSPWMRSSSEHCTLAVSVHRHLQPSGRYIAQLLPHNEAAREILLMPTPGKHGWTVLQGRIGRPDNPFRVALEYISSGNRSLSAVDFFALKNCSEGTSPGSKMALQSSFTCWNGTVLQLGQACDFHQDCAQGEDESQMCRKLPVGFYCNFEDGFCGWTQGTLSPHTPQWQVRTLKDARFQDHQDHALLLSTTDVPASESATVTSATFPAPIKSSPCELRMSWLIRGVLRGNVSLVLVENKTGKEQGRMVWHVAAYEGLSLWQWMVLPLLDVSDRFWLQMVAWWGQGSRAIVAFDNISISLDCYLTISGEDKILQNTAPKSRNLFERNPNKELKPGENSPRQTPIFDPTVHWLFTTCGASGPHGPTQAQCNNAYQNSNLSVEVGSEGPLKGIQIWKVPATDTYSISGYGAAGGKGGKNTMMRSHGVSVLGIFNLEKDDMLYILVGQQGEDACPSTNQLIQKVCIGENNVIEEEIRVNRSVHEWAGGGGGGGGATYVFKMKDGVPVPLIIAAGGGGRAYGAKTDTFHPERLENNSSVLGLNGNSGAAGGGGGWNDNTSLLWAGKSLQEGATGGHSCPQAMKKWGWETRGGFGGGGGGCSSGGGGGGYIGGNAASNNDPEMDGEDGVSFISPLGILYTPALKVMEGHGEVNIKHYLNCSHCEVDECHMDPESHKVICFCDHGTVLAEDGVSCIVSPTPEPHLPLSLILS
molecule,measurement,setting,value
ALKAL2 (from UniProt Q6UX46),Kd,[1],40 nM
RNase1 (from UniProt P07998),Kd,[2],92.4 nM
"recombinantly purified 6x N-terminal His-tagged RNase1 (ligand, human, UniProt P07998 29-156, looked up, human secretory ribonuclease 1 (RNase1); cDNA cloned into the prokaryotic vector PSJ3 with N-terminal 6His tag; a bacterial construct is likely to lack the signal peptide (surmise); also called R1; human secretory ribonuclease 1; source: E. coli BL21, purified (HisTrap column); not shown: His6, N-terminal, kept) KESRAKKFQRQHMDSDSSPSSSSTYCNQMMRRRNMTQGRCKPVNTFVHEPLVDVQNVCFQEKVTCKNGQGNCYKSNSSMHITDCRLTNGSRYPNCAYRTSPKERHIIVACEGSPYVPVHFDASVEDST",Kd,[3],43 nM
